Test results from patent US20180022816A1 (Genmab, published 2018).

B1: HuMab 005 (antibody, human IgG1, V domains shown)
VH: EVQLVQSGAEVKKPGESLKISCKASGYSFHFYWIGWVRQMPGKGLEWMGSIYPGDSDTRYRPSFQGQVTISADKSISTAYLQWTSLKASDTAIYYCARQRGDYYYFYGMDVWGQGTTVTVSS
VL: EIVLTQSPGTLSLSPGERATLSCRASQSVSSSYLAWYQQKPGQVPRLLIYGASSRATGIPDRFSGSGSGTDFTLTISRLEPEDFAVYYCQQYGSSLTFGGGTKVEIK
B2: HuMab 060 (antibody, V domains shown)
VH: EVQLVQSGAEVKKPGESLKISCKGSGYRFTSYWIGWVRQMPGKGLEWMGSIYPGDSYTRNSPSFQGQVTISADKSIATAYLQWNSLKASDTAMYYCARHAGDFYYFDGLDVWGQGTTVTVSS
VL: not shown
B3: HuMab 111 (antibody, V domains shown)
VH: QVQLVQSGAEVKKPGSSVKVSCKASGGTFSSYGISWVRQAPGPGLEWMGRIIPILGIANYAQKFQGRVTITADKSTNTAYMELSSLRSEDTAVYYCARDQEYSSNWYYWGQGTLVTVSS
VL: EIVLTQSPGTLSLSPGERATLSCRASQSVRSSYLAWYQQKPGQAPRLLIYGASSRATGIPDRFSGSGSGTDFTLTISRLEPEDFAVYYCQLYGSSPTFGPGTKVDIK
B4: HuMab 059 (antibody, V domains shown)
VH: QVQLVQSGAEVKKPGASVRVPCKASGYTFTRYGISWVRQAPGQGLEWMGWISAYNGKTYYAQKLQGRVTMTTDTSTSTAYMELRSLRSDDTAVYYCARSPLLWFEELYFDYWGQGTLVTVSS
VL: EIVLTQSPGTLSLSPGERATLSCRASQSVSSTYLAWYQQKPGQAPRLLIYGASSRATGIPDRFSGSGSGTDFTLTISRLEPEDFAVYYCQQYGTSLFTFGPGTKVDIK
B5: HuMab 106 (antibody, V domains shown)
VH: EVQLVQSGAEVKKPGESLKISCKGSGYSFTRYWIGWVRQMPGKGLEWMGIIYPGDSDTRYSPSFQGQVTISADKSISTAYLQWSSLKASDTAMYYCARLTGDRGFDYYSGMDVWGQGTTVTVSS
VL: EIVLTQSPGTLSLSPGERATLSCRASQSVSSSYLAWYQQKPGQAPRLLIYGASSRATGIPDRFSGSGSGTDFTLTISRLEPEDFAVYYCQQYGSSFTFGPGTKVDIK

target: T1, human epidermal growth factor receptor 2 (HER2), membrane-bound on tumor cells (AU565, A431, SK-BR-3) (human, UniProt P04626 23-1255); assay: cell-based or functional assay

| Binder | EC50 of killing, A431 cells, anti-kappa-ETA′-conjugated antibody [µg/mL] |
| --- | --- |
| B1 | ~0.0101 |
| B2 | ~0.01 |

target: T1, human epidermal growth factor receptor …; assay: cell-based or functional assay; remark: another data set of the same source

| Binder | EC50, fab-CypHer5E internalization assay, AU565 cells [µg/mL] | Maximal MFI, fab-CypHer5E internalization assay, AU565 cells [MFI] |
| --- | --- | --- |
| B3 | 0.0352 | 81700 |
| B1 | 0.0214 | 95100 |
| B4 | 0.0148 | 77100 |
| B2 | 0.0362 | 68200 |
| B5 | 0.0686 | 57400 |

target: T1, human epidermal growth factor receptor …; assay: cell-based or functional assay; remark: another data set of the same source

| Binder | % cells killed, AU565 cells, anti-kappa-ETA′-conjugated antibody [%] | EC50 of killing, AU565 cells, anti-kappa-ETA′-conjugated antibody [µg/mL] |
| --- | --- | --- |
| B3 | 72 | 0.0242 |
| B1 | 69.7 | 0.0151 |
| B4 | 67 | 0.0677 |
| B2 | 64.3 | 0.0794 |
| B5 | 59.1 | 0.108 |
